How the values were obtained:
[1] = test system: neurons in the brain (WT brain sections); test: Binding of biotinylated osteocalcin to brain sections (anti-biotin immunofluorescence, competition); parameters: species or system mouse
Protocol: FIG. 3. Osteocalcin binds to neurons in the brain. (A) Measurement of the total osteocalcin in 3 month-old Osteocalcin^−/− mice infused subcutaneously for 7 days with either uncarboxylated osteocalcin (300 ng/hour, right panel) or PBS (left panel). Osteocalcin levels were measured in bone, serum, and different parts of the brain (cortex, midbrain, hypothalamus, brainstem, and cerebellum). (B) Subcutaneous infusion of leptin ([…], right panel) or PBS (left panel) for 7 days in ob/ob mice. Leptin levels were measured in serum, cortex, midbrain, hypothalamus, brainstem, and cerebellum. (C) Binding of GST-biotin (30 μg/ml) (panel 1) and biotinylated osteocalcin (300 ng/ml) (panels 2-4) to the dorsal (DR) and median (MR) raphe nuclei of the brainstem (identified by anti-5-HT immunofluorescence), to the ventral tegmental area (VTA) of the midbrain (identified by anti-TH immunofluorescence), and to the CA3 and CA4 of the hippocampus (identified anatomically). […] Binding with GST-biotin, osteocalcin-biotinylated, and competition assays were performed on adjacent sections. (D) Expression of Tph2 and GAD 1 in brainstem, and Th in midbrain explants from WT and Gprc6a^−/− mice, treated with 10 ng/ml osteocalcin or vehicle. (E) Gene expression in WT primary hindbrain neuron cultures treated with 10 ng/ml osteocalcin or vehicle. (F) Calcium flux response of primary hindbrain cultured neurons to osteocalcin treatment. (G-H) Extracellular current recordings of (G) neurons of the dorsal raphe nucleus and (H) GABAergic interneurons of the brainstem treated with osteocalcin (10 ng/ml).
Brains from 8-week-old mice were snap-frozen in isopentane, and […] thick sections were prepared and desiccated overnight at 4° C. under vacuum. On the following day, sections were rehydrated in ice-cold binding buffer (50 mM TrisHCl [pH 7.4], 10 mM MgCl2, 0.1 mM EDTA and 0.1% BSA) for 15 min and incubated for 1 hr in the presence of biotinylated osteocalcin (3, 30, 300, 3000 ng/ml) or biotynylated recombinant GST as a control ([…]). After washing in harvesting buffer (50 mM Tris-HCl, pH 7.4), samples were fixed in 4% paraformaldehyde for 15 min, washed in PBS and incubated with goat anti-biotin antibody (1:1000, Vector laboratories) over night at 4° C. Signal was visualized by incubating with anti-goat IgG Cy-3 using Leica DM 5000B microscope (Leica). The binding assays were perform on adjacent sections for each conditions tested.
This accumulation in discrete regions of the brain raised the question of whether osteocalcin binds to specific neurons in the brain. This was tested by incubating sections of adult or embryonic (E18.5) WT brains with biotinylated undercarboxylated osteocalcin or GST-biotin alone (30 μg/ml), followed by immunofluorescence analysis using an anti-biotin antibody. […]

[2] = Ex vivo dual perfusion of the mouse placenta (maternal-fetal transport); type: in vitro ADME; conditions: 300 ng/ml through the uterine artery
Protocol: FIG. 6. Maternal osteocalcin favors fetal neurogenesis. (A) Expression of osteocalcin (qPCR) in bone, brain, and placenta of WT and Ocn^−/− newborns (postnatal day [P] 0) and embryos (E13.5-E18.5). (B) Osteocalcin circulating levels in WT or Ocn^−/− newborns (P0) and embryos (E13.5-E18.5). (C) Ex vivo dual-perfusion system that monitors the transport of osteocalcin across the placenta. Uncarboxylated mouse osteocalcin (300 ng/ml) was injected through the uterine artery in placentas obtained from WT mice at E14.5, E15.5, and E18.5 of pregnancy. Osteocalcin in fetal eluates is represented as % of maternal input. (D) Circulating levels of osteocalcin in WT embryos originating from WT or Ocn^+/− mothers, of Ocn^+/− embryos originating from Ocn^+/− Ocn^−/− mothers, and of Ocn^−/− embryos originating from Ocn^+/− or Ocn^−/− mothers. Measurements were performed at E16.5 and E18.5. […]
Maternal-fetal transport of osteocalcin was monitored using ex vivo dual perfusion of the mouse placenta (Goeden & Bonnin, 2013, Nature Protocols 8:66-74). […] Osteocalcin transport through the placenta was analyzed by measuring the concentration of osteocalcin present in fetal eluates obtained through the umbilical vein, each time point (1-9) corresponding to a 10 minute collection period (at 5 μl/min). […]

[3] = biotinylated undercarboxylated osteocalcin, WT brain sections

B1: uncarboxylated osteocalcin: Recombinant osteocalcin bacterially produced, cleaved from the GST subunit; completely undercarboxylated at all three sites (protein, listed as Homo sapiens)
chain: MRALTLLALLALAALCIAGQAGAKPSGAESSKGAAFVSKQEGSEVVKRPRRYLYQWLGAPVPYPDPLEPRREVCELNPDCDELADHIGFQEAYRRFYGPV
modifications: uncarboxylated
notes: Recombinant osteocalcin bacterially produced, cleaved from the GST subunit; completely undercarboxylated at all three sites
[1]; [3]
  binding in the brainstem: bound to neurons of the raphe nuclei
  binding in the midbrain: bound to the ventral tegmental area and the substantia nigrae
[1]; biotinylated undercarboxylated osteocalcin, adult or E18.5 WT brain sections
  binding to neuronal populations of the brain: bound to several neuronal populations in the forebrain, midbrain, and brainstem
[1]; excess of unlabeled osteocalcin versus excess of GST
  specificity of binding in the midbrain and brainstem (competition): specific
[2]; WT placentas
  transport across the placenta, onset: begins to cross the placenta at day 14.5 of gestation
[2]; compared with day 14.5
  transplacental transfer to the fetal circulation at day 15.5 or 18.5 of gestation: larger transplacental transfer
